Patent US20180155451A1 (published 2018)

T1: FcγRIIa H (human, UniProt P12318 34-217)
T1 construct: extracellular domain; Soluble extracellular domain with C-terminal His tag, expressed in FreeStyle293 cells; also called FcgRIIa H; 2aH; not shown: C-terminal His tag
T1 sequence (looked up): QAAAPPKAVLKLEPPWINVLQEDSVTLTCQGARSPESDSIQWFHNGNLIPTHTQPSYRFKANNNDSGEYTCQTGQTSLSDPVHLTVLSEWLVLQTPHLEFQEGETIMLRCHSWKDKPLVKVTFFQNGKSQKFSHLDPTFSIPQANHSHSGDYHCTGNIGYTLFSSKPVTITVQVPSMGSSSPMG

T2: FcγRIIb (human, UniProt P31994 43-217)
T2 construct: extracellular domain; Soluble extracellular domain with C-terminal His tag, expressed in FreeStyle293 cells; also called FcgRIIb; 2b; not shown: C-terminal His tag
T2 sequence (looked up): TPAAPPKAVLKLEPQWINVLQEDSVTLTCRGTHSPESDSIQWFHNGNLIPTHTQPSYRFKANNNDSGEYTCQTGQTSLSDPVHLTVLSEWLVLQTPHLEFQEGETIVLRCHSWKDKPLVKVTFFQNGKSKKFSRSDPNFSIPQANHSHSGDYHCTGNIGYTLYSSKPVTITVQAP

B1: GpH7-A5/GpH7-B3 variant P238_03V/GpL16-k0 (antibody, human IgG1, kappa)
heavy 1: not shown
heavy 2: not shown
light: DIVMTQSPLSLPVTPGEPASISCQASESLVHSNRNTYLHWYLQKPGQSPQLLIYKVSNRFSGVPDRFSGSGSGTDFTLKISRVEAEDVGVYYCSQNTHVPPTFGQGTKVEIERTVAAPSVFIFPPSDEQLKSGTASVVCLLNNFYPREAKVQWKVDNALQSGNSQESVTEQDSKDSTYSLSSTLTLSKADYEKHKVYACEVTHQGLSSPVTKSFNRGEC
notes: Heterodimerized anti-glypican-3 IgG1; alteration in the GpH7-B3 chain only; also called He Ab
B2: GpH7-A5/GpH7-B3 variant G236_09D/GpL16-k0 (antibody, human IgG1, kappa)
heavy 1: not shown
heavy 2: not shown
light: B1 light
notes: as for B1
B3: GpH7-A5/GpH7-B3 variant G237_06M/GpL16-k0 (antibody, human IgG1, kappa)
heavy 1: not shown
heavy 2: not shown
light: B1 light
notes: as for B1
B4: GpH7-A5/GpH7-B3 variant G237_08L/GpL16-k0 (antibody, human IgG1, kappa)
heavy 1: not shown
heavy 2: not shown
light: B1 light
notes: as for B1
B5: GpH7-A5/GpH7-B3 variant G237_10E/GpL16-k0 (antibody, human IgG1, kappa)
heavy 1: not shown
heavy 2: not shown
light: B1 light
notes: as for B1
B6: GpH7-A5/GpH7-B3 variant G237_15Y/GpL16-k0 (antibody, human IgG1, kappa)
heavy 1: not shown
heavy 2: not shown
light: B1 light
notes: as for B1
B7: GpH7-A5/GpH7-B3 variant G237_16H/GpL16-k0 (antibody, human IgG1, kappa)
heavy 1: not shown
heavy 2: not shown
light: B1 light
notes: as for B1
B8: GpH7-A5/GpH7-B3 variant G237_19Q/GpL16-k0 (antibody, human IgG1, kappa)
heavy 1: not shown
heavy 2: not shown
light: B1 light
notes: as for B1
B9: GpH7-A5/GpH7-B3 variant L234_09D/GpL16-k0 (antibody, human IgG1, kappa)
heavy 1: not shown
heavy 2: not shown
light: B1 light
notes: as for B1
B10: GpH7-A5/GpH7-B3 variant P238_04F/GpL16-k0 (antibody, human IgG1, kappa)
heavy 1: not shown
heavy 2: not shown
light: B1 light
notes: as for B1
B11: GpH7-A5/GpH7-B3 variant P238_06M/GpL16-k0 (antibody, human IgG1, kappa)
heavy 1: not shown
heavy 2: not shown
light: B1 light
notes: as for B1
B12: GpH7-A5/GpH7-B3 variant P238_13S/GpL16-k0 (antibody, human IgG1, kappa)
heavy 1: not shown
heavy 2: not shown
light: B1 light
notes: as for B1
B13: GpH7-A5/GpH7-B3 variant P238_14T/GpL16-k0 (antibody, human IgG1, kappa)
heavy 1: not shown
heavy 2: not shown
light: B1 light
notes: as for B1
B14: GpH7-A5/GpH7-B3 variant P238_15Y/GpL16-k0 (antibody, human IgG1, kappa)
heavy 1: not shown
heavy 2: not shown
light: B1 light
notes: as for B1
B15: GpH7-A5/GpH7-B3 variant P238_19Q/GpL16-k0 (antibody, human IgG1, kappa)
heavy 1: not shown
heavy 2: not shown
light: B1 light
notes: as for B1
B16: GpH7-A5/GpH7-B3 variant P238_20W/GpL16-k0 (antibody, human IgG1, kappa)
heavy 1: not shown
heavy 2: not shown
light: B1 light
notes: as for B1
B17: GpH7-A5/GpH7-B3 variant S239_03V/GpL16-k0 (antibody, human IgG1, kappa)
heavy 1: not shown
heavy 2: not shown
light: B1 light
notes: as for B1

Target: T1, FcγRIIa H
Test: SPR (Biacore), antibody captured, FcγR as analyte; relative to HeCon Ab
Description: (§1) The heterodimerized antibodies He Abs in which one of the H chains was introduced with an alteration were assayed for their binding activities to each activating FcγR and inhibitory FcγR according to the method described in Example 4. […] The activating FcγRs in FIGS. 26, 27, 28, and 29 are FcγRIa, FcγRIIa (R), FcγRIIa (H), and FcγRIIIa, respectively.
(§2) Analysis of interaction between objective antibody and the FcγR was carried out using Biacore T100 (GE Healthcare). HBS-EP+ (GE Healthcare) was used as the running buffer, and the measurement temperature was set to 25° C. Chips produced by immobilizing the antigen peptide by the amine coupling method to a Series S Sencor Chip CM5 (GE Healthcare), or alternatively, chips produced by allowing preliminarily biotinylated antigen peptides to interact with and immobilize onto a Series S Sensor Chip SA (certified) (GE Healthcare) were used. Antibodies of interest were captured onto an antigen peptide-immobilized chip, and allowed to interact to each FcγR diluted with running buffer. To regenerate and repeatedly use the chip, the antibodies captured on the chip were washed off by reacting 10 mM glycine-HCl, pH 1.5.

Row | Binder | He/Con_2aH
1 | B1 | 89 % of GpH7-A5/GpH7-B3/GpL16-k0 (=100)
2 | B2 | 89.8 % of GpH7-A5/GpH7-B3/GpL16-k0 (=100)
3 | B3 | 17.8 % of GpH7-A5/GpH7-B3/GpL16-k0 (=100)
4 | B4 | 13.9 % of GpH7-A5/GpH7-B3/GpL16-k0 (=100)
5 | B5 | 15.1 % of GpH7-A5/GpH7-B3/GpL16-k0 (=100)
6 | B6 | 25.4 % of GpH7-A5/GpH7-B3/GpL16-k0 (=100)
7 | B7 | 16.4 % of GpH7-A5/GpH7-B3/GpL16-k0 (=100)
8 | B8 | 26.5 % of GpH7-A5/GpH7-B3/GpL16-k0 (=100)
9 | B9 | 89.9 % of GpH7-A5/GpH7-B3/GpL16-k0 (=100)
10 | B10 | 65.4 % of GpH7-A5/GpH7-B3/GpL16-k0 (=100)
11 | B11 | 47.6 % of GpH7-A5/GpH7-B3/GpL16-k0 (=100)
12 | B12 | 50.9 % of GpH7-A5/GpH7-B3/GpL16-k0 (=100)
13 | B13 | 37.7 % of GpH7-A5/GpH7-B3/GpL16-k0 (=100)
14 | B14 | 59.8 % of GpH7-A5/GpH7-B3/GpL16-k0 (=100)
15 | B15 | 56.4 % of GpH7-A5/GpH7-B3/GpL16-k0 (=100)
16 | B16 | 59.5 % of GpH7-A5/GpH7-B3/GpL16-k0 (=100)
17 | B17 | 91 % of GpH7-A5/GpH7-B3/GpL16-k0 (=100)

Target: T2, FcγRIIb
Test: as above
Description: as §1, §2

Row | Binder | He/Con_2b
18 | B1 | 120 % of GpH7-A5/GpH7-B3/GpL16-k0 (=100)
19 | B2 | 167 % of GpH7-A5/GpH7-B3/GpL16-k0 (=100)
20 | B3 | 130 % of GpH7-A5/GpH7-B3/GpL16-k0 (=100)
21 | B4 | 148 % of GpH7-A5/GpH7-B3/GpL16-k0 (=100)
22 | B5 | 114 % of GpH7-A5/GpH7-B3/GpL16-k0 (=100)
23 | B6 | 152 % of GpH7-A5/GpH7-B3/GpL16-k0 (=100)
24 | B7 | 55.2 % of GpH7-A5/GpH7-B3/GpL16-k0 (=100)
25 | B8 | 108 % of GpH7-A5/GpH7-B3/GpL16-k0 (=100)
26 | B9 | 150 % of GpH7-A5/GpH7-B3/GpL16-k0 (=100)
27 | B10 | 312 % of GpH7-A5/GpH7-B3/GpL16-k0 (=100)
28 | B11 | 174 % of GpH7-A5/GpH7-B3/GpL16-k0 (=100)
29 | B12 | 70.4 % of GpH7-A5/GpH7-B3/GpL16-k0 (=100)
30 | B13 | 50.7 % of GpH7-A5/GpH7-B3/GpL16-k0 (=100)
31 | B14 | 218 % of GpH7-A5/GpH7-B3/GpL16-k0 (=100)
32 | B15 | 110 % of GpH7-A5/GpH7-B3/GpL16-k0 (=100)
33 | B16 | 123 % of GpH7-A5/GpH7-B3/GpL16-k0 (=100)
34 | B17 | 108 % of GpH7-A5/GpH7-B3/GpL16-k0 (=100)
